Test [1] has as its target Canine parvovirus CPV-2c (TS02 strain), purified virus (canine parvovirus CPV-2c, TS02 strain). The experiment in a line: indirect ELISA, purified CPV coated, serum dilution 1:1000; control of the third immunization serum.
Test [2] has the same target. The experiment in a line: indirect ELISA, purified CPV coated, serum dilution 1:5000; control of the third immunization serum. Background: ELISA stands for enzyme-linked immunosorbent assay.
The target is the same in test [3]. The experiment in a line: indirect ELISA, purified CPV coated, serum dilution 1:1000; control of the fourth immunization serum.
Test [4] has the same target. Briefly: indirect ELISA, purified CPV coated, serum dilution 1:25000; control of the third immunization serum.
Test [5] has the same target. The experiment in a line: indirect ELISA, purified CPV coated, serum dilution 1:5000; control of the fourth immunization serum.
Test [6] shares this target. Briefly: indirect ELISA, purified CPV coated, serum dilution 1:25000; control of the fourth immunization serum.
Test [7] shares this target. The experiment in a line: indirect ELISA, purified CPV coated, serum dilution printed 1:1250000 (text: 125,000 times); control of the third immunization serum.
For test [8] the target is unchanged. Briefly: indirect ELISA, purified CPV coated, serum dilution printed 1:1250000 (text: 125,000 times); control of the fourth immunization serum.
Test [9] shares this target. Briefly: cell-based or functional assay.
For test [10] the target is unchanged. Briefly: indirect ELISA, purified CPV coated, nanobody dilution 1:10, anti-His-HRP.
For test [11] the target is unchanged. Briefly: indirect ELISA, purified CPV coated, nanobody dilution 1:100, anti-His-HRP.
Test [12] shares this target. The experiment in a line: indirect ELISA, purified CPV coated, nanobody dilution 1:1000, anti-His-HRP.
For test [13] the target is unchanged. Briefly: indirect ELISA, purified CPV coated, nanobody dilution 1:10000, anti-His-HRP.

Regarding Negative serum of non-immunized alpaca, the mean OD450 nm in test [1] worked out at 0.158 OD450 nm; in [2], 0.071 OD450 nm; in test [3], 0.371 OD450 nm; in [4], 0.048 OD450 nm; in test [5] it was 0.16 OD450 nm; in test [6], 0.083 OD450 nm. For the same molecule, the results for the mean OD450 nm in [7] and in test [8] were 0.044 OD450 nm and 0.067 OD450 nm, respectively.

B1: CPV nanobody CPV-VHH-H1 (VHH)
VHH: QVQLVESGGGLAQPGGSLRLSCAASGAIDSISAMRWFRQPPGKQRAVVASITSDGVTTYADSVKGRFTISRDNAENTLYLQMNSLKTEDTGVYYCYAALKGYSSGVVAASWGQGTQVTVSG
In test [9], B1 came in with a neutralization titer (CPV neutralization assay, CPE on CRFK cells) (titer (1:x dilution)) of less than 10. Besides, the mean OD450 nm in test [10] amounted to 2.56 OD450 nm; in [11], 2.46 OD450 nm; in test [12], 0.28 OD450 nm; in test [13], 0.1 OD450 nm.

These data come from US20230192815A1.
